Results on ten molecules are retold here after patent US20220267403A1 (FRED HUTCHINSON CANCER RESEARCH CENTER, published 2022).

The target of assay [1] is T1, UTY peptide on HLA-A*02:01 (human).
T1 peptide: KAFQDVLYV
In words: killing.

The target in assay [2] is T2, 5T4 17-25 variant R4A (alanine-substituted) peptide on HLA-A*02:01 (human).
T2 peptide: RLAALALVL
In words: killing.

Assay [3] addresses T3, 5T4 17-25 variant R1A (alanine-substituted) peptide on HLA-A*02:01 (human).
T3 peptide: ALARLALVL
In words: killing.

Assay [4] has as its target T4, DDX3Y peptide on HLA-A*02:01 (human).
T4 peptide: FLLDILGAT
The experiment in a line: killing.

Assay [5] has as its target T5, 5T4 (trophoblast glycoprotein, TPBG) peptide on HLA-A*02:01 (human).
T5 peptide: RLARLALVL
The experiment in a line: multimer staining.

Assay [6] has as its target T6, HLA-A*0201 on the surface of T2 cells (human).
T6 construct: Class I molecule that the test peptides load in the HLA-A2 stabilization assay; also called HLA-A2
The experiment in a line: HLA-A2 stabilization on T2 cells, BB7.2 staining, flow cytometry.
Description: Aliquots of 2×10⁵ T2 cells were cultured in serum-free RPMI media supplemented with human β₂-microglobulin at 5 μg/mL plus the test peptide.

B1: Clone3-6C3 (TCR, V domains shown)
Valpha: AQTVTQSQPEMSVQEAETVTLSCTYDTSESDYYLFWYKQPPSRQMILVIRQEAYKQQNATENRFSVNFQKAAKSFSLKISDSQLGDAAMYFCSSGGGADGLTFGKGTHLIIQP
Vbeta: NAGVTQTPKFRVLKTGQSMTLLCAQDMNHEYMYWYRQDPGMGLRLIHYSVGEGTTAKGEVPDGYNVSRLKKQNFLLGLESAAPSQTSVYFCASMDLAFKQYFGPGTRLTVT
With B1, the binding result in assay [1] is recorded as “no recognition”; in assay [2], “no recognition”; in assay [3], “no recognition”; in assay [4], “no recognition”; in assay [5] it was “recognises”.
As for RLARAALVL (Alanine-substituted variant of 5T4p17) [L5A synthetic peptide RLARAALVL], the binding result in assay [6] was “no binding”.
The same measure, in the same setting: the result for RLARLAAVL (Alanine-substituted variant of 5T4p17) [L7A synthetic peptide RLARLAAVL] reads “no binding”; that for RLARLALAL (Alanine-substituted variant of 5T4p17) [V8A synthetic peptide RLARLALAL], “no binding”.
On the same count and under the same terms, the result for ALARLALVL (Alanine-substituted variant of 5T4p17) [R1A synthetic peptide ALARLALVL] reads “binds”.
Still for that read-out and setting: for RLAALALVL (Alanine-substituted variant of 5T4p17) [R4A synthetic peptide RLAALALVL] the value was “binds”.

B2: Clone2-6B8 (TCR, V domains shown)
Valpha: QKEVEQNSGPLSVPEGAIASLNCTYSDRGSQSFFWYRQYSGKSPELIMFIYSNGDKEDGRFTAQLNKASQYVSLLIRDSQPSDSATYLCAVPDDAGNMLTFGGGTRLMVKP
Vbeta: DAGITQSPRYKITETGRQVTLMCHQTWSHSYMFWYRQDLGHGLRLIYYSAAADITDKGEVPDGYVVSRSKTENFPLTLESATRSQTSVYFCASSELPAGGTNEQFFGPGTRLTVL
As for B2, the binding result in assay [1] is on record as “no recognition”; in assay [2], “no recognition”; in assay [3], “recognises”; in assay [4], “no recognition”; in assay [5], “recognises”.

B3: Clone15-3F10 (TCR, V domains shown)
Valpha: AQTVTQSQPEMSVQEAETVTLSCTYDTSENNYYLFWYKQPPSRQMILVIRQEAYKQQNATENRFSVNFQKAAKSFSLKISDSQLGDTAMYFCASMYSGGGADGLTFGKGTHLIIQP
Vbeta: EAQVTQNPRYLITVTGKKLTVTCSQNMNHEYMSWYRQDPGLGLRQIYYSMNVEVTDKGDVPEGYKVSRKEKRNFPLILESPSPNQTSLYFCASSFFSNTGELFFGEGSRLTVL
Turning to B3, the binding result is on record as “no recognition” in assay [1]; “no recognition” in assay [2]; “recognises” in assay [3]; “no recognition” in assay [4]; “recognises” in assay [5].

B4: Clone19-5C2 (TCR, V domains shown)
Valpha: AQTVTQSQPEMSVQEAETVTLSCTYDTSESDYYLFWYKQPPSRQMILVIRQEAYKQQNATENRFSVNFQKAAKSFSLKISDSQLGDAAMYFCAYRSGSDGGSQGNLIFGKGTKLSVKP
Vbeta: ETGVTQTPRHLVMGMTNKKSLKCEQHLGHNAMYWYKQSAKKPLELMFVYSLEERVENNSVPSRFSPECPNSSHLFLHLHTLQPEDSALYLCASSQVSGYEQYFGPGTRLTVT
In the case of B4, the binding result in assay [1] is “no recognition”; in assay [2] it was “no recognition”; in assay [3], “no recognition”; in assay [4], “no recognition”; in assay [5] it was “recognises”.

B5: Clone21-7A10 (TCR, V domains shown)
Valpha: GQSLEQPSEVTAVEGAIVQINCTYQTSGFYGLSWYQQHDGGAPTFLSYNALDGLEETGRFSSFLSRSDSYGYLLLQELQMKDSASYFCAVRDDYGQNFVFGPGTRLSVLP
Vbeta: NAGVMQNPRHLVRRRGQEARLRCSPMKGHSHVYWYRQLPEEGLKFMVYLQKENIIDESGMPKERFSAEFPKEGPSILRIQQVVRGDSAAYFCASSPQGDNEQFFGPGTRLTVL
Take B5: the binding result in assay [1] is reported as “no recognition”; in assay [2] it was “no recognition”; in assay [3], “recognises”; in assay [4], “no recognition”; in assay [5] it was “recognises”.
